In patent publication US20240043522A1:

How the values were obtained:
[1] = molecular target: biotinylated human FcRn protein (human) (UniProt P55899); assay: SPR (Biacore T200), biotinylated hFcRn captured on CAP chip, antibody as analyte
[2] = molecular target: His-tagged recombinant human FcγRI/CD64 (human) (UniProt P12314); assay: SPR (Biacore T200), His-tagged FcγR captured by anti-His, antibody as analyte, 1:1 kinetic model
[3] = molecular target: His-tagged recombinant human FcγRIIIa/CD16a (V158) (human) (UniProt P08637); assay: as above
[4] = molecular target: His-tagged recombinant mouse FcγR4/CD16-2 (mouse); assay: as above
[5] = molecular target: His-tagged recombinant human FcγRIIa/CD32a (R167) (human) (UniProt P12318); assay: as above
[6] = molecular target: His-tagged recombinant human FcγRIIb/c/CD32b/c (human) (UniProt P31994); assay: as above
Chain of His-tagged recombinant human FcγRIIb/c/CD32b/c (human) (P31994 46-217 limits assumed): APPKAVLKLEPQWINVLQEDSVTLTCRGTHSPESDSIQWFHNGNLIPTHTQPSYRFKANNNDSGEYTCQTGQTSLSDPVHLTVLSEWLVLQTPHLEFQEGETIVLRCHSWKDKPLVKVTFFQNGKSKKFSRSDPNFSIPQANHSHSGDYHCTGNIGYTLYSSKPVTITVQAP

Chain of His-tagged recombinant human FcγRI/CD64 (human) (P12314 16-288 limits assumed): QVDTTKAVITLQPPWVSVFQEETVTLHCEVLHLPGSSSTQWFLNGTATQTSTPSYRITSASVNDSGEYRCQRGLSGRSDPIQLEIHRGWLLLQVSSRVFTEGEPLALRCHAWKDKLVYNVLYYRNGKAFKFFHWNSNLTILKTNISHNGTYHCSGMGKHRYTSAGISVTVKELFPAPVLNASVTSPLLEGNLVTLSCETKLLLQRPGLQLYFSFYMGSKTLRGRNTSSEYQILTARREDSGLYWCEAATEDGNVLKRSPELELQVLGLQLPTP
Chain of His-tagged recombinant human FcγRIIIa/CD16a (V158) (human) (P08637 17-208 F176V limits assumed): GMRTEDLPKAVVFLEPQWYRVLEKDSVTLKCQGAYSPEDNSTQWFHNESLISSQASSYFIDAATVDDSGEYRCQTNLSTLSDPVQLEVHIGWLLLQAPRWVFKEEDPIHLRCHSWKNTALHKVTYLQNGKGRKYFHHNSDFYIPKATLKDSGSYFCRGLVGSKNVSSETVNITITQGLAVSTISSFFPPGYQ
Chain of biotinylated human FcRn protein (human) (P55899 24-297 limits assumed, form in doubt, chain 1 of 2): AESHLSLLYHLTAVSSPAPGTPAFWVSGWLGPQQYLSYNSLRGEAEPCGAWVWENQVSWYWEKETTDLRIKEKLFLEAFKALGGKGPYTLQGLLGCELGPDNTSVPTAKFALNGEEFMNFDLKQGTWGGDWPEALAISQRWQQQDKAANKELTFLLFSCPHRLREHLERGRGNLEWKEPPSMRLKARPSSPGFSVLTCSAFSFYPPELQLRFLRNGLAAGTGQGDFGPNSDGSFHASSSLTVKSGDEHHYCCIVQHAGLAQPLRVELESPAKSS
Chain of biotinylated human FcRn protein (human) (P61769 21-119 limits assumed, form in doubt, chain 2 of 2, further chain): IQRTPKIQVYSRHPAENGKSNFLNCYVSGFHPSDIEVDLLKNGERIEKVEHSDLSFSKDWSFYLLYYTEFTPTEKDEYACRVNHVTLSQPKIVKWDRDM
Chain of His-tagged recombinant human FcγRIIa/CD32a (R167) (human) (P12318 36-218 H167R limits assumed): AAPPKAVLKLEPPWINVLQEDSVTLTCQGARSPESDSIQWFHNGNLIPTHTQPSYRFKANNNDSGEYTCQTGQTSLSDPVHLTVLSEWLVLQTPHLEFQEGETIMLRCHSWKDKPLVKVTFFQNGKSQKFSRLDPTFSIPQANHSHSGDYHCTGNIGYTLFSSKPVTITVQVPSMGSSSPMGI

Substance: mab04 (adalimumab Fab, IgG1 E269R, K322A) (antibody)
- Kd [1]: 357 nM
- Kd [2]: 6.7 nM
- Kd [3]: > 10000 nM
- Kd [4]: > 5000 nM

Substance: mab05 (adalimumab Fab, IgG1 L234A/L235A P329A) (antibody)
- Kd [1]: 265 nM
- Kd [2]: > 10000 nM

Substance: mab02 (adalimumab Fab, IgG1 L234A/L235A N297A, aglycosylated) (antibody)
- Kd [1]: 263 nM

Substance: mab01 (adalimumab, IgG1 wild-type) (antibody)
- Kd [1]: 361 nM
- Kd [2]: 0.8 nM
- Kd [3]: 656 nM
- Kd [5]: 3280 nM
- Kd [6]: > 10000 nM
- Kd [4]: 827 nM

Substance: mab07 (adalimumab Fab, upside-down IgG1 Fc with 19GS-linker between CH1 and CH2) (antibody)
- Kd [1]: 348 nM

Substance: mab06 (adalimumab Fab, upside-down IgG1 Fc, no linker between CH1 and CH2) (antibody)
- Kd [1]: 528 nM

Substance: mab03 (adalimumab Fab, IgG2 Fc-backbone) (antibody)
- Kd [1]: 342 nM
- Kd [3]: > 10000 nM
- Kd [5]: > 5000 nM
- Kd [6]: > 10000 nM
- Kd [4]: > 10000 nM
